In patent US20240016943:

Tests used:
[1] = target: B (MAX basic helix alone) (UniProt P61244); assay: EMSA; conditions: basic helix alone
[2] = target: B-Z (MAX-derived STR, cross-dimer) (UniProt P61244); assay: EMSA; conditions: 95% CI 13-19; also 16 in Tables 12, 14; 20 mM HEPES pH 8.0, 150 mM NaCl, 2 mM MgCl2
[3] = target: B-Z helical tetramer (UniProt P61244+P61244); assay: EMSA
[4] = target: B-Z1 (UniProt P61244); assay: EMSA; conditions: apparent; Table 14 gives 45
[5] = target: B-Z2 (UniProt P61244); assay: EMSA; conditions: apparent; Table 14 gives 22
[6] = target: B-Z3 (UniProt P61244); assay: EMSA; conditions: apparent; Table 14 gives 15
[7] = target: B-Z4 (UniProt P61244); assay: EMSA; conditions: apparent; Table 14 gives 14
[8] = target: B-Z5 (C-terminally truncated zipper) (UniProt P61244); assay: EMSA; conditions: apparent; Table 14 gives 88
[9] = target: B-ZL1 (UniProt P61244+P61244); assay: EMSA; conditions: listed as B-ZLI1; Table 14 gives 19
[10] = target: B-ZM3 (UniProt P61244+P61244); assay: EMSA; conditions: 25 nM sDBD
[11] = target: B-ZM4 (UniProt P61244); assay: EMSA
[12] = tested on: T1, B1 (stapled MAX basic helix alone); assay: EMSA; conditions: stapled basic helix alone
T1 sequence: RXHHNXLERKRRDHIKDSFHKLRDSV

[13] = tested on: T2, B1-Z1; assay: EMSA
T2 sequence 1: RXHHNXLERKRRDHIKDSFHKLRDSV
T2 sequence 2: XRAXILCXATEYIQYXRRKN

[14] = tested on: T3, B1-Z2 helical tetramer; assay: EMSA
T3 sequence 1: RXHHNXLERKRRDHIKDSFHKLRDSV
T3 sequence 2: XAQILCKATEYIQXMRRXN

[15] = tested on: T4, B1-Z2; assay: EMSA; conditions: 95% CI 22-29
T4 sequence 1: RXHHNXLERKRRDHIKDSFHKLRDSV
T4 sequence 2: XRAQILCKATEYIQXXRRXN

[16] = tested on: T5, B1-Z4; assay: EMSA; conditions: 95% CI 37-43
T5 sequence 1: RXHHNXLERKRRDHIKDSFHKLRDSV
T5 sequence 2: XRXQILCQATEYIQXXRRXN

[17] = tested on: T6, B1-Z; assay: EMSA; conditions: apparent; Table 14 gives 17
T6 sequence 1: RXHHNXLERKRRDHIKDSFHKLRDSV
T6 sequence 2: XRAQILCKATEYIQYXRRK

[18] = target: B10-Z6 (UniProt P61244); assay: EMSA
[19] = target: B11-Z10 (UniProt P61244); assay: EMSA; conditions: method inferred
[20] = target: B11-Z4 (UniProt P61244); assay: EMSA; conditions: 95% CI 16-20; Table 14 gives 38
[21] = target: B11-Z7 (UniProt P61244); assay: EMSA
[22] = target: B11-Z70 (UniProt P61244); assay: EMSA; conditions: method inferred
[23] = target: B11-Z80 (STR1180) (UniProt P61244); assay: EMSA; conditions: method inferred
[24] = target: B11-Z81 (UniProt P61244); assay: EMSA; conditions: method inferred
[25] = tested on: B11-ZM4; assay: EMSA
[26] = target: B11s-Z8 (UniProt P61244); assay: EMSA; conditions: method inferred
[27] = tested on: T7, B12-Z6; assay: EMSA
T7 sequence 1: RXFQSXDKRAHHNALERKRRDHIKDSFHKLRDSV
T7 sequence 2: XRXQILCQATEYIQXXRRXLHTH

[28] = tested on: T8, B2-Z2; assay: EMSA
T8 sequence 1: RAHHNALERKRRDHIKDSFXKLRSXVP
T8 sequence 2: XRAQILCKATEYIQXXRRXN

[29] = tested on: T9, B2-Z4; assay: EMSA
T9 sequence 1: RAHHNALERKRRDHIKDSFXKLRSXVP
T9 sequence 2: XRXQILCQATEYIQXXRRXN

[30] = tested on: T10, B2-Z; assay: EMSA; conditions: apparent; Table 14 gives 15
T10 sequence 1: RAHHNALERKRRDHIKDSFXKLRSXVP
T10 sequence 2: XRAQILCKATEYIQYXRRK

[31] = tested on: T11, B3-Z; assay: EMSA; conditions: apparent; Table 14 gives 76
T11 sequence 1: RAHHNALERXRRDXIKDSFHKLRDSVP
T11 sequence 2: XRAQILCKATEYIQYXRRK

[32] = tested on: T12, B4-Z; assay: EMSA; conditions: apparent; Table 14 gives 25 (conflict)
T12 sequence 1: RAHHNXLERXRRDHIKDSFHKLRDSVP
T12 sequence 2: XRAQILCKATEYIQYXRRK

[33] = tested on: T13, B5-Z4; assay: EMSA; conditions: 95% CI 98-126; Table 14 gives 118
T13 sequence 1: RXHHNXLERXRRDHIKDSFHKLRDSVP
T13 sequence 2: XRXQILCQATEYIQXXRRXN

[34] = tested on: T14, B6-Z4; assay: EMSA; conditions: 95% CI 49-66
T14 sequence 1: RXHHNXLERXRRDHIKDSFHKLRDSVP
T14 sequence 2: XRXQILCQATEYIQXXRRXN

[35] = tested on: T15, B7-Z4; assay: EMSA
T15 sequence 1: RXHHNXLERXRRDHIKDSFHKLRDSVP
T15 sequence 2: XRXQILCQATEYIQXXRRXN

[36] = tested on: T16, B7-Z; assay: EMSA; conditions: apparent; Table 14 gives 173
T16 sequence 1: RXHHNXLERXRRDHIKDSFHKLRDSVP
T16 sequence 2: XRAQILCKATEYIQYXRRK

[37] = tested on: T17, B8-Z4; assay: EMSA
T17 sequence 1: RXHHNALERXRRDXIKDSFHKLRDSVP
T17 sequence 2: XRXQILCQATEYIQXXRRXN

[38] = tested on: T18, B8-Z; assay: EMSA; conditions: apparent; Table 14 gives 672 (conflict)
T18 sequence 1: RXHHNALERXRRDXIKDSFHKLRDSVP
T18 sequence 2: XRAQILCKATEYIQYXRRK

[39] = target: BLI1-Z (UniProt P61244); assay: EMSA; conditions: apparent; Table 14 gives 12
[40] = target: T19, BLI1-ZL1 (UniProt P61244+P61244); assay: EMSA; conditions: 95% CI 14-35; Table 14 gives 19
[41] = target: BLI1-ZM4 (UniProt P61244); assay: EMSA
[42] = target: BLI1-ZM5 (UniProt P61244); assay: EMSA
[43] = target: BLI1s-Z (UniProt P61244); assay: EMSA; conditions: 25 nM sDBD
[44] = target: BLI2-ZL1 (UniProt P61244); assay: EMSA; conditions: 500 nM sDBD
[45] = tested on: BLI2-Z; assay: EMSA; conditions: 500 nM sDBD
[46] = target: BMADs-Z (UniProt P61244); assay: EMSA; conditions: 25 nM sDBD; listed twice, second value 82% (possibly BMAD-Z)
[47] = target: BMYCs-Z (UniProt P61244); assay: EMSA; conditions: 25 nM sDBD; listed twice, second value 19% (possibly BMYC-Z)
[48] = target: STR116 (B11-Z6) (UniProt P61244); assay: EMSA; conditions: 95% CI 13-16; B11-Z6 14 in Table 14
[49] = target: STR118 (B11-Z8) (UniProt P61244); assay: EMSA; conditions: 95% CI 3.0-4.0; B11-Z8 4.2 in Table 14
[50] = target: B-ZM4 (UniProt P61244); assay: competition; conditions: MAX competition at 500 nM
[51] = tested on: T3, B1-Z2 helical tetramer; assay: competition; conditions: helical tetramer vs MAX
[52] = target: B10-Z6 (UniProt P61244); assay: competition; conditions: vs MAX
[53] = target: B11-Z4 (UniProt P61244); assay: competition; conditions: vs MAX
[54] = tested on: B11-ZM4; assay: competition; conditions: vs MAX
[55] = tested on: T7, B12-Z6; assay: competition; conditions: vs MAX
[56] = target: BLI1-Z (UniProt P61244); assay: competition; conditions: vs MAX; 50% at 500 nM in Table 16
[57] = target: T19, BLI1-ZL1; assay: competition; conditions: vs MAX
[58] = target: BLI1-ZM4 (UniProt P61244); assay: competition; conditions: vs MAX
[59] = target: BLI1s-Z (UniProt P61244); assay: competition; conditions: MAX competition at 500 nM
[60] = tested on: BLI2-Z; assay: competition; conditions: MAX competition at 500 nM
[61] = target: BMAD-Z (UniProt P61244); assay: competition; conditions: MAX competition at 500 nM
[62] = target: BMADs-Z (UniProt P61244); assay: competition; conditions: MAX competition at 500 nM
[63] = target: BMYC-Z (UniProt P61244); assay: competition; conditions: MAX competition at 500 nM
[64] = target: BMYCs-Z (UniProt P61244); assay: competition; conditions: MAX competition at 500 nM
[65] = target: STR116 (B11-Z6) (UniProt P61244); assay: competition; conditions: vs MAX/MAX 30 nM; Table 15 gives 65 for B11-Z6 (conflict); vs MYC/MAX 1.0 uM
[66] = target: STR118 (B11-Z8) (UniProt P61244); assay: competition; conditions: vs MAX/MAX 30 nM; Table 15 gives 79 for B11-Z8; vs MYC/MAX 170 nM

E-box probe
Kd [1]: > 2 µM | Kd [2]: 0.016 µM | Kd [3]: 0.002 µM | Kd [4]: 0.058 µM | Kd [5]: 0.022 µM | Kd [6]: 0.018 µM | Kd [7]: 0.02 µM | Kd [8]: 0.098 µM | Kd [9]: 0.02 µM | binding signal [10]: 53 % bound | Kd [11]: 0.008 µM | Kd [12]: > 2 µM | Kd [13]: 0.049 µM | Kd [14]: 0.0018 µM | Kd [15]: 0.026 µM | Kd [16]: 0.04 µM | Kd [17]: 0.018 µM | Kd [18]: 0.016 µM | Kd [19]: 0.0048 µM | Kd [20]: 0.018 µM | Kd [21]: 0.022 µM | Kd [22]: 0.011 µM | Kd [23]: 0.0027 µM | Kd [24]: > 0.1 µM | Kd [25]: 0.021 µM | Kd [26]: 0.0065 µM | Kd [27]: 0.008 µM | Kd [28]: 0.018 µM | Kd [29]: 0.015 µM | Kd [30]: 0.019 µM | Kd [31]: 0.077 µM | Kd [32]: 0.239 µM | Kd [33]: 0.111 µM | Kd [34]: 0.057 µM | Kd [35]: 0.234 µM | Kd [36]: 0.169 µM | Kd [37]: 0.164 µM | Kd [38]: 0.066 µM | Kd [39]: 0.0083 µM | Kd [40]: 0.025 µM | Kd [41]: 0.01 µM | Kd [42]: 0.0028 µM | binding signal [43]: 50 % bound | binding signal [44]: 54 % bound | binding signal [45]: 72 % bound | binding signal [46]: 63 % bound | binding signal [47]: 27 % bound | Kd [48]: 0.014 µM | Kd [49]: 0.0035 µM | activity [50]: 41% | IC50 [51]: 1.1 µM | IC50 [52]: 0.326 µM | IC50 [53]: 0.496 µM | IC50 [54]: 0.56 µM | IC50 [55]: 0.062 µM | IC50 [56]: 0.905 µM | IC50 [57]: 0.935 µM | IC50 [58]: 0.56 µM | activity [59]: 22% | activity [60]: 16% | activity [61]: 66% | activity [62]: 24% | activity [63]: 9% | activity [64]: 7% | IC50 [65]: 0.4 µM | IC50 [66]: 0.061 µM
